Measured values published in article PMC2408619 (2008).

T1: Biotinylated Prn-E (pertactin residues 38-640 with N-terminal biotinylation sequence) (B. bronchiseptica, UniProt Q03035 38-640, biotin (in vivo biotinylation of the N-terminal biotinylation sequence))
T1 chain: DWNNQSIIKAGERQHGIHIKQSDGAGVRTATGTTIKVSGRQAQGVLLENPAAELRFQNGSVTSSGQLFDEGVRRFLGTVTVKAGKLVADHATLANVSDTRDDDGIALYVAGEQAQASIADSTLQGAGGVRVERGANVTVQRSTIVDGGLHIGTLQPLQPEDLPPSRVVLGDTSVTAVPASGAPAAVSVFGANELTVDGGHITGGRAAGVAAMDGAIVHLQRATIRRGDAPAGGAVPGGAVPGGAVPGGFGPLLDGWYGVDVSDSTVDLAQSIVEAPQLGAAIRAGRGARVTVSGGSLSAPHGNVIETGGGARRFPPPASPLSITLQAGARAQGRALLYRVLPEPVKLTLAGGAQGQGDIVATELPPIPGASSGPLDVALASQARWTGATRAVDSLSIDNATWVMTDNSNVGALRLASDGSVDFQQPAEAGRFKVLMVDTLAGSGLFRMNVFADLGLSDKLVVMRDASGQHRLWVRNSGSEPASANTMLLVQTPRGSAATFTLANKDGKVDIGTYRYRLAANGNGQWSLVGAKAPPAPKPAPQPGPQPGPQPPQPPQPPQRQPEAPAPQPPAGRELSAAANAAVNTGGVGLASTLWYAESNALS

B1: Pertactin on the surface of Bvg+ B. bronchiseptica RB53 (receptor)
chain: DWNNQSIIKAGERQHGIHIKQSDGAGVRTATGTTIKVSGRQAQGVLLENPAAELRFQNGSVTSSGQLFDEGVRRFLGTVTVKAGKLVADHATLANVSDTRDDDGIALYVAGEQAQASIADSTLQGAGGVRVERGANVTVQRSTIVDGGLHIGTLQPLQPEDLPPSRVVLGDTSVTAVPASGAPAAVSVFGANELTVDGGHITGGRAAGVAAMDGAIVHLQRATIRRGDAPAGGAVPGGAVPGGAVPGGFGPLLDGWYGVDVSDSTVDLAQSIVEAPQLGAAIRAGRGARVTVSGGSLSAPHGNVIETGGGARRFPPPASPLSITLQAGARAQGRALLYRVLPEPVKLTLAGGAQGQGDIVATELPPIPGASSGPLDVALASQARWTGATRAVDSLSIDNATWVMTDNSNVGALRLASDGSVDFQQPAEAGRFKVLMVDTLAGSGLFRMNVFADLGLSDKLVVMRDASGQHRLWVRNSGSEPASANTMLLVQTPRGSAATFTLANKDGKVDIGTYRYRLAANGNGQWSLVGAKAPPAPKPAPQPGPQPGPQPPQPPQPPQRQPEAPAPQPPAGRELSAAANAAVNTGGVGLASTLWYAESNALSKRLGELRLNPDAGGAWGRGFAQRQQLDNRAGRRFDQKVAGFELGADHAVAVAGGRWHLGGLAGYTRGDRGFTGDGGGHTDSVHVGGYATYIANSGFYLDATLRASRLENDFKVAGSDGYAVKGKYRTHGVGASLEAGRRFAHADGWFLEPQAELAVFRVGGGAYRAANGLRVRDEGGSSVLGRLGLEVGKRIELAGGRQVQPYIKASVLQEFDGAGTVRTNGIAHRTELRGTRAELGLGMAAALGRGHSLYASYEYSKGPKLAMPWTFHAGYRYSW

How the values were obtained:
[1] = target: BPP-6 phage displaying Mtd-P6 (Bordetella bacteriophage BPP-6, UniProt Q775D6)
[2] = target: B1
[3] = target: T1, Biotinylated Prn-E (pertactin residues …); test: SPR

| Binder | Kd [1] [pM] | Kd [2] [pM] | koff [3] [s⁻¹] |
| --- | --- | --- | --- |
| B1 | 0.059 | – | – |
| BPP-1 phage displaying Mtd-P1 (other) MSTAVQFRGGTTAQHATFTGAAREITVDTDKNTVVVHDGATAGGFPLARHDLVKTAFIKADKSAVAFTRTGNATASIKAGTIVEVNGKLVQFTADTAITMPALTAGTDYAIYVCDDGTVRADSNFSAPTGYTSTTARKVGGFHYAPGSNAAAQAGGNTTAQINEYSLWDIKFRPAALDPRGMTLVAGAFWADIYLLGVNHLTDGTSKYNVTIADGSASPKKSTKFGGDGSAAYSDGAWYNFAEVMTHHGKRLPNYNEFQALAFGTTEATSSGGTDVPTTGVNGTGATSAWNIFTSKWGVVQASGCLWTWGNEFGGVNGASEYTANTGGRGSVYAQPAAALFGGAWNGTSLSGSRAALWYSGPSFSFAFFGARGVCDHLILE | – | 3.7 | 0.000636 |
